Laboratory results: patent US20210388087A1 (Chugai, published 2021)
Substitutions are numbered along the chain they refer to. Names may count otherwise.

B1: H183/L072 VH A57M (antibody, name in Kabat numbering, V domains shown)
VH: QVQLVESGGGLVQPGRSLRLSCAASGFTFSNAWMHWVRQAPGKGLEWVAQIKDKGNAYAMYYAPSVKGRFTISRDDSKNSIYLQMNSLKTEDTAVYYCHYVHYASASTVLPAFGVDAWGQGTTVTVSS
VL: DIVMTQSPLSLPVTPGEPASISCQASQELVHMNRNTYLHWYQQKPGQAPRLLIYKVSNRFPGVPDRFSGSGSGTDFTLKISRVEAEDVGVYYCAQGTSVPFTFGQGTKLEIK
B2: H183/L072 VH A60T (antibody, name in Kabat numbering, V domains shown)
VH: B1 VH with M60A, A63T
VL: B1 VL
B3: H183/L072 VH A57W (antibody, name in Kabat numbering, V domains shown)
VH: B1 VH with M60W
VL: B1 VL
B4: H183/L072 VH A57P (antibody, name in Kabat numbering, V domains shown)
VH: B1 VH with M60P
VL: B1 VL
B5: H183/L072 VH A102M (antibody, name in Kabat numbering, V domains shown)
VH: B1 VH with M60A, A117M
VL: B1 VL
B6: H183/L072 VH A57V (antibody, name in Kabat numbering, V domains shown)
VH: B1 VH with M60V
VL: B1 VL
B7: H183/L072 VH A98P (antibody, name in Kabat numbering, V domains shown)
VH: B1 VH with M60A, A104P
VL: B1 VL
B8: H183/L072 VH A98M (antibody, name in Kabat numbering, V domains shown)
VH: B1 VH with M60A, A104M
VL: B1 VL
B9: H183/L072 VH A60Q (antibody, name in Kabat numbering, V domains shown)
VH: B1 VH with M60A, A63Q
VL: B1 VL
B10: H183/L072 VH A60N (antibody, name in Kabat numbering, V domains shown)
VH: B1 VH with M60A, A63N
VL: B1 VL
B11: H183/L072 VH A100fI (antibody, name in Kabat numbering, V domains shown)
VH: B1 VH with M60A, A112I
VL: B1 VL
B12: H183/L072 VH A60M (antibody, name in Kabat numbering, V domains shown)
VH: B1 VH with M60A, A63M
VL: B1 VL
B13: H183/L072 VH A102P (antibody, name in Kabat numbering, V domains shown)
VH: B1 VH with M60A, A117P
VL: B1 VL
B14: H183/L072 VH A60D (antibody, name in Kabat numbering, V domains shown)
VH: B1 VH with M60A, A63D
VL: B1 VL
B15: H183/L072 VH A60R (antibody, name in Kabat numbering, V domains shown)
VH: B1 VH with M60A, A63R
VL: B1 VL
B16: H183/L072 VH A60W (antibody, name in Kabat numbering, V domains shown)
VH: B1 VH with M60A, A63W
VL: B1 VL
B17: H183/L072 VH A98L (antibody, name in Kabat numbering, V domains shown)
VH: B1 VH with M60A, A104L
VL: B1 VL
B18: H183/L072 VH D52aA (antibody, name in Kabat numbering, V domains shown)
VH: B1 VH with D53A, M60A
VL: B1 VL
B19: H183/L072 VH A57Q (antibody, name in Kabat numbering, V domains shown)
VH: B1 VH with M60Q
VL: B1 VL
B20: H183/L072 VH A57Y (antibody, name in Kabat numbering, V domains shown)
VH: B1 VH with M60Y
VL: B1 VL
B21: H183/L072 VH A100P (antibody, name in Kabat numbering, V domains shown)
VH: B1 VH with M60A, A106P
VL: B1 VL
B22: H183/L072 VH A60S (antibody, name in Kabat numbering, V domains shown)
VH: B1 VH with M60A, A63S
VL: B1 VL
B23: H183/L072 VH A57N (antibody, name in Kabat numbering, V domains shown)
VH: B1 VH with M60N
VL: B1 VL
B24: H183/L072 VH A60P (antibody, name in Kabat numbering, V domains shown)
VH: B1 VH with M60A, A63P
VL: B1 VL
B25: H183/L072 VH A98I (antibody, name in Kabat numbering, V domains shown)
VH: B1 VH with M60A, A104I
VL: B1 VL
B26: H183/L072 VH A57S (antibody, name in Kabat numbering, V domains shown)
VH: B1 VH with M60S
VL: B1 VL
B27: H183/L072 VH A100fL (antibody, name in Kabat numbering, V domains shown)
VH: B1 VH with M60A, A112L
VL: B1 VL
B28: H183/L072 VH A102L (antibody, name in Kabat numbering, V domains shown)
VH: B1 VH with M60A, A117L
VL: B1 VL
B29: H183/L072 VH A60V (antibody, name in Kabat numbering, V domains shown)
VH: B1 VH with M60A, A63V
VL: B1 VL
B30: H183/L072 VH A57T (antibody, name in Kabat numbering, V domains shown)
VH: B1 VH with M60T
VL: B1 VL
B31: H183/L072 VH A60I (antibody, name in Kabat numbering, V domains shown)
VH: B1 VH with M60A, A63I
VL: B1 VL
B32: H183/L072 VH A57R (antibody, name in Kabat numbering, V domains shown)
VH: B1 VH with M60R
VL: B1 VL
B33: H183/L072 VH A102I (antibody, name in Kabat numbering, V domains shown)
VH: B1 VH with M60A, A117I
VL: B1 VL
B34: H183/L072 VH A60K (antibody, name in Kabat numbering, V domains shown)
VH: B1 VH with M60A, A63K
VL: B1 VL
B35: H183/L072 VH A60L (antibody, name in Kabat numbering, V domains shown)
VH: B1 VH with M60A, A63L
VL: B1 VL
B36: H183/L072 VH A100L (antibody, name in Kabat numbering, V domains shown)
VH: B1 VH with M60A, A106L
VL: B1 VL
B37: H183/L072 VH A100I (antibody, name in Kabat numbering, V domains shown)
VH: B1 VH with M60A, A106I
VL: B1 VL
B38: H183/L072 VH A60H (antibody, name in Kabat numbering, V domains shown)
VH: B1 VH with M60A, A63H
VL: B1 VL
B39: H183/L072 VH A60G (antibody, name in Kabat numbering, V domains shown)
VH: B1 VH with M60A, A63G
VL: B1 VL
B40: H183/L072 VH A60E (antibody, name in Kabat numbering, V domains shown)
VH: B1 VH with M60A, A63E
VL: B1 VL
B41: H183/L072 VH A60Y (antibody, name in Kabat numbering, V domains shown)
VH: B1 VH with M60A, A63Y
VL: B1 VL
B42: H183/L072 VH A100M (antibody, name in Kabat numbering, V domains shown)
VH: B1 VH with M60A, A106M
VL: B1 VL
B43: H183/L072 VH A60F (antibody, name in Kabat numbering, V domains shown)
VH: B1 VH with M60A, A63F
VL: B1 VL
B44: H183/L072 VH A100fP (antibody, name in Kabat numbering, V domains shown)
VH: B1 VH with M60A, A112P
VL: B1 VL
B45: H183/L072 VH A100fM (antibody, name in Kabat numbering, V domains shown)
VH: B1 VH with M60A, A112M
VL: B1 VL

Biological target: T1, Human CD3eg linker (human)
T1 construct: Single chain: epsilon and gamma subunits of human CD3 joined by a 29-mer linker, Flag-tag at the C-terminus; also called recombinant human CD3
T1 chain: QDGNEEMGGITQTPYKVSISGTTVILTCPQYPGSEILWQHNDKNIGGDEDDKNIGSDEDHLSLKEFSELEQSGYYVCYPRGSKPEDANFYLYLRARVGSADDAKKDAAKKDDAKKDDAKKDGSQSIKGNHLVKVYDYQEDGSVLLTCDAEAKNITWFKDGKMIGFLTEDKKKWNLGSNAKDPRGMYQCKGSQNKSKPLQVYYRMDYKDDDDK
Assay: Biacore SPR, vs template H183/L072

Row | Binder | fold change of affinity
1 | B1 | 0.9 fold
2 | B2 | 0.9 fold
3 | B3 | 0.4 fold
4 | B4 | 0.9 fold
5 | B5 | 1 fold
6 | B6 | 0.9 fold
7 | B7 | 0.2 fold
8 | B8 | 1 fold
9 | B9 | 1.1 fold
10 | B10 | 1 fold
11 | B11 | 1 fold
12 | B12 | 1 fold
13 | B13 | 0 fold
14 | B14 | 1.3 fold
15 | B15 | 1 fold
16 | B16 | 1 fold
17 | B17 | 3.7 fold
18 | B18 | 0 fold
19 | B19 | 1.1 fold
20 | B20 | 0.4 fold
21 | B21 | 1.3 fold
22 | B22 | 1.3 fold
23 | B23 | 0.7 fold

Row | Binder | fold change of affinity
24 | B24 | 0.5 fold
25 | B25 | 4.6 fold
26 | B26 | 1.1 fold
27 | B27 | 1.2 fold
28 | B28 | 0.7 fold
29 | B29 | 1 fold
30 | B30 | 1.3 fold
31 | B31 | 0.6 fold
32 | B32 | 1.3 fold
33 | B33 | 0.9 fold
34 | B34 | 0.9 fold
35 | B35 | 1.2 fold
36 | B36 | 1.2 fold
37 | B37 | 1.4 fold
38 | B38 | 1.1 fold
39 | B39 | 1.9 fold
40 | B40 | 1.1 fold
41 | B41 | 0.7 fold
42 | B42 | 1 fold
43 | B43 | 0.7 fold
44 | B44 | 0.6 fold
45 | B45 | 1.3 fold
